Measured values: patent publication US20250082681A1 (NANJING LEGEND BIOTECH, published 2025)
Residue numbers refer to the chain shown, from its start.

T1: recombinant human CLL1 extracellular domain, His-tagged (CLL1-His protein) (human, UniProt Q5QGZ9 65-265)
T1 construct: ECD made by transient expression in HEK293 (293-F) cells and purified by IMAC; also called recombinant human CLL1 protein; ECD of CLL1; not shown: His tag (protein called CLL1-His, purified by IMAC)
T1 sequence: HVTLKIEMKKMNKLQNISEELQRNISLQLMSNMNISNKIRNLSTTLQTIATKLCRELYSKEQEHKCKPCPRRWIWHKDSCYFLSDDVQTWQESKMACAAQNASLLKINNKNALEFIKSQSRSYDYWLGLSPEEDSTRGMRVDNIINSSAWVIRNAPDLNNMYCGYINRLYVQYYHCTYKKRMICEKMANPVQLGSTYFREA

B1: AS141297 (antibody, V domains shown)
VH: QVQLVQSGGGLVQPGGSLRLSCAASGFTFSSYGMIWVRQAPGKGLEWVSAANSGGGTTYYADSVKGRFTISRDNAKNTLYLQLNSLKTEDTAMYYCVKDLYIDGGTWSGLGLYLEVWGQGTLVTVSS
VL: SYELTQPSAVSVSLGETARITCQGGDFGTYYASWYQQKPGQAPVLVIYEDSERPSGIPERFSGSSSGGTATLTISGAQAEDEADYYCQSADSSVNVVFGGGTHLTVL
notes: Called 'IgG1', from a camel phage library, expressed in IPTG-induced supernatant with a C-terminal His-tag; also called anti-CLL1 IgG1
B2: AS138993 (antibody, V domains shown)
VH: QVQLQESGGDLVQPGGSLRLSCAASGFTFSSYDMTWVRQAPGKGLEWVSTINSGGGVTYYTDSVKGRFTISRDNAKNTLYLQMNSLKPEDTAMYYCAADLSWYHALDAWGQGTLVTVSS
VL: SSELTQPAAVSVSLGETARITCQGGNFGSYYASWYQQKPGQAPVLVIHANDNRPSGIPERFSGSSSGGTVTLTISGAQAEDEADYYCQSYDSSANAVVFGGGTHLTVL
notes: as for B1
B3: AS141567 (antibody, V domains shown)
VH: QVQLVQSGGGLVQPGGSLRLSCAASGFTFSSYAMSWVRQAPGKGLEWVSAINSGDSSTYYVDSVKGRFTISRDNAKNTLYLQLNSLKTEDTAMYYCAKDRIPGPYSDGGGFLGIVFGYWGQGTQVTISS
VL: SSELTQPSAVSVSLGQTARITCQGGNFGKYYAHWYQQKPGQAPVLVIYEDSERPSGIPERFSGSSSGDTATLTISGAQAEDEGDYYCHSAESSAAVFGGGTHLTVL
notes: as for B1
B4: AS141522 (antibody, V domains shown)
VH: QVQLVQSGGGLVQPGGSLRLSCAASGFTFGDYIMIWVRQAPGKGLEWVSAINSGGDSTYYADSVKGRFTISRDNAKNTLYLQLNSLKTQDTAIYYCAKDREAYYGSFYGGSGFDYWGQGTQVTISS
VL: SSELTQPSAVSVSLGETARITCQGGNVGSSYASWYQQKPGQAPVLVIYEDSERPSGIPERFSGSSSGGTATLTISRAQAEDEADYYCQSADRSGYNAVFGGGTHLTVL
notes: as for B1
B5: AS141641 (antibody, V domains shown)
VH: AVQLVESGGGLVQPGGSLRLSCAASGFTFSGYPMSWVRQAPGKALEWVSTINNGGGSTYYADSVKGRFTISRDNAKNTLYLQLNSLKTEDTAMYYCAKRHIPSSYCSDGYCYAAGEDYGMDYWGKGTLVTISS
VL: B4 VL with R76G, R92S
notes: as for B1
B6: AS138628 (antibody, V domains shown)
VH: QVQLVQSGGGLVQPGGSLRLSCASSGFTFSSYTMSWVRQAPGKGLEWVSGFNSYGSTYYADSVKGRFTISRDNAKNTLYLQLNSLKTEDTAMYYCARGLVDFDYWGQGTQVTVSS
VL: QSVLTQPSSVSGTPGQTVTISCTGTSNDVGGYNYVSWYQQLPGTAPKLLIYQVNKRASGIPDRFSGSKSGNTASMTISGLQSADEADYYCASYRSTGNAVFGGGTHLTVL
notes: as for B1
B7: AS141553 (antibody, V domains shown)
VH: QVQLVESGGGLVQPGGSLRLSCAASGFTFSSVDMTWVRQAPGKGLEWVSTINTGSGSTYYADSVKGRFTISRDNAKNTLYLQMNSLKTEDTAVYYCATDLAGGGAWFTAPFHYWGQGTQVTISS
VL: SYELTQPSAVSVSLGETARITCQGGNVGYYYASWYQQKPGQAPVLVIYEDSERPSGIPERFSGSSSGGTATLTISGAQAEDEADYYCQSADSSGYNAAVFGGGTHLTVL
notes: as for B1
B8: AS141701 (antibody, V domains shown)
VH: QVQLVQSGGGLVQPGGSLRLSCAASGFTFSVYAMSWVRQAPGKGLEWVSAIKAANSDGDNTYYVDSVKGRFTISRDNAKNTLYLQLNSLKTEDTAIYYCAKAMYECSSGSWCPLGDALDAWGQGTLVTVSS
VL: B7 VL with Y2S, G28R, Y29S, Y30S, A32V, A90G, S92N, G94A, N96S
notes: as for B1
B9: AS138943 (antibody, V domains shown)
VH: AVQLVESGGGLVQPGGSLRLSCTASGFNFGLYAMSWVRQAPGKGLEWVSGINGGGGLTYYPDSMKGRFTISRDVAKNTLYLELNSLKIEDTAMYYCAKDPDMWTAFPNALDAWGQGTLVTVSS
VL: SYELTQPSAVSVSLGETARITCQGGNIGINYANWYQQKPGQAPVLVIYGDDRRPSGIPERFSGSISGGTATLTISGAQAEDEADYYCQSADSSPYVVFGGGTHLTVL
notes: as for B1
B10: AS138658 (antibody, V domains shown)
VH: QVQLVQSGGSLRLSCAASGFTFSSYDMSWVRQAPGKGLEWVSTINSGGETTYYRDSVKGRFTISRDNAKNTLYLQLNSLKTEDTAMYYCAKGGGWEYYGMDYWGKGTLVTISS
VL: SYELTQPSAVSVSLGQTARITCQGGNLGSSYAYWYQQKPGQAPVLVIYADDSRPSGIPERFSGSSSGGTATLTISGAQAEDEADYYCQSYDSSSYDIVFGGGTHLTVL
notes: as for B1
B11: AS141286 (antibody, V domains shown)
VH: QVQLVQSGGGLVQPGGSLRLSCAASRFPDGSYYMSWVRQGPGKGLEWVSSIYTGGDSTYYADSVKGRFTISKDNAKNALYLQMNSLKPEDTAVYYCAADPGGRYGPHEYNYWGQGTQVTVSS
VL: B4 VL with V27I, S30N, S33N, E49G, S51D, E52S, R76G, R92S
notes: as for B1
B12: AS141330 (antibody, V domains shown)
VH: QVKLEQPGGSLRLSCAASGFTFSDYDMTWVRQAPGKGLEWISTITGGGESTYYRDSVKGRATISRDNAKNTLYLQLNSLKTEDTAMYYCARGGGWEYYGMNYWGKGTLVTISS
VL: B4 VL with N26K, S30N, E49G, S51D, E52S, R76G, A90Y, R92S
notes: as for B1
B13: AS141819 (antibody, V domains shown)
VH: EVQLVQSGGGLVQPGGSLRLSCATSGFTFSNNWMHWVRQAPGKGLEWVSSINTGDGSTSSADSVKGRFTISRDNTKNILYLQMNSLKSEDTALYYCAKELDYELGKGPHEYNYWGQGTQVTVSS
VL: SYELTQPSAVSVSLGETARITCQGGNIGSNYANWYQQKPDQAPVLVIYGDDSRPSGIPERFSGSSSGGTATLTISGAQAEDETDYYCQSADSSGYKAVFGGGTHLTVL
notes: as for B1

Legend:
[1] = biological target: T1, recombinant human CLL1 extracellular …; experiment: SPR (BIACORE T200), IgG1 on recombinant human CLL1; column KD, unit inferred
Description: (§1) The unique clones were grown in 2YT medium and induced by IPTG for IgG1 expression in the supernatant. The supernatants of unique binders were analyzed for their ability to bind to a CLL1-expressing HEK293/huCLL1 cell line and cancer cell line AMLL193 using a FACS assay. Affinities of selected binders in supernatants to recombinant human and cynomolgus monkey CLL1 proteins were determined by surface plasmon resonance (SPR) on a BIACORE® T200 instrument. The dissociation phase was used to calculate the kd values for each IgG1.

[2] = biological target: T1, recombinant human CLL1 extracellular …; experiment: SPR (BIACORE T200), supernatants on recombinant human CLL1
Description: as §1

| Binder | Kd [1] [nM] | binding result [2] |
| --- | --- | --- |
| B1 | 0.54 |  |
| B2 | 13 |  |
| B3 | 2.3 |  |
| B4 | 0.37 |  |
| B5 | 0.28 |  |
| B6 | 43 |  |
| B7 | 3.5 |  |
| B8 | 2.8 |  |
| B9 | 39 |  |
| B10 | 21 |  |
| B11 | 1.2 |  |
| B12 |  | binds |
| B13 | 11 |  |
